The chains are these.
T1: CD81 (UniProt P60033 1-236, limits assumed)
T1 construct: whole, on cells; also called CD81 receptor
T1 sequence (looked up): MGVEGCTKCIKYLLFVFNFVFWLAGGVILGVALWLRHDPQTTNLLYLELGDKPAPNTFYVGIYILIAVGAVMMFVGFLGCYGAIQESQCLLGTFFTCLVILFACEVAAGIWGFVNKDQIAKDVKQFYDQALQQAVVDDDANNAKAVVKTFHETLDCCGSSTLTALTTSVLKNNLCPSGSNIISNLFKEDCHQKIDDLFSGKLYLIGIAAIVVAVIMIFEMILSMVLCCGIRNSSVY

B1: CD81K13 HC 01-hVH_1_f / LC CD81K13 (antibody, V domains shown)
VH: EVQLVQSGAEVKKPGATVKISCKVSGYTFTDSYMHWVQQAPGKGLEWMGRIDTGNGNVKFDPKFQGRVTITADTSTDTAYMELSSLRSEDTAVYYCAPYGYGFHSWGQGTLVTVSS
VL: DIQMTQSPASLSVSVGETVTITCRASENIYRTLAWYLQKQGKSPQLLVYGATTLADGVPSRFSGSGSGTQYYLKINSLQSEDFGTYHCQHFWGTPWTFGGGTKVEIK
notes: human constant region
B2: CD81K13 HC 01-hVH_1_f / LC 1c-hVK_3_15 (antibody, V domains shown)
VH: EVQLVQSGAEVKKPGATVKISCKVSGYTFTDSYMHWVQQAPGKGLEWMGRIDTGNGNVKFDPKFQGRVTITADTSTDTAYMELSSLRSEDTAVYYCAPYGYGFHSWGQGTLVTVSS
VL: EIVMTQSPATLSVSPGERATLSCRASENIYRTLAWYQQKPGQAPRLLIYGATTLADGIPARFSGSGSGTEFTLTISSLQSEDFGVYYCQHFWGTPWTFGQGTKVEIK
notes: human constant region
B3: CD81K13 HC 01-hVH_1_f / LC 01-hVK_3_15 (antibody, V domains shown)
VH: EVQLVQSGAEVKKPGATVKISCKVSGYTFTDSYMHWVQQAPGKGLEWMGRIDTGNGNVKFDPKFQGRVTITADTSTDTAYMELSSLRSEDTAVYYCAPYGYGFHSWGQGTLVTVSS
VL: EIVMTQSPATLSVSPGERATLSCRASENIYRTLAWYQQKPGQAPRLLIYGATTRATGIPARFSGSGSGTEFTLTISSLQSEDFGVYYCQHFWGTPWTFGQGTKVEIK
notes: human constant region
B4: CD81K13 HC 01-hVH_1_f / LC 1b-hVK_3_15 (antibody, V domains shown)
VH: EVQLVQSGAEVKKPGATVKISCKVSGYTFTDSYMHWVQQAPGKGLEWMGRIDTGNGNVKFDPKFQGRVTITADTSTDTAYMELSSLRSEDTAVYYCAPYGYGFHSWGQGTLVTVSS
VL: EIVMTQSPATLSVSPGERATLSCRASENIYRTLAWYQQKPGQAPRLLIYGATTLADGIPARFSGSGSGTEFTLTISSLQSEDFAVYYCQHFWGTPWTFGQGTKVEIK
notes: human constant region
B5: CD81K13 HC CD81K13 / LC 03-hVK_1_9 (antibody, V domains shown)
VH: EVRLHQSAAQLVQPGASVRLSCTTSGFNFKDSYLHWVKQRPAQGLEWIGRIDTGNGNVKFDPKFQDKATITTDIPSMTAYLHLSNLTSEDTAVYYCVPYGYGFHSWGDGTTLTVSS
VL: DIQLTQSPSFLSASVGDRVTITCRASENIYRTLAWYQQKPGKAPKLLIYAATTLASGVPSRFSGSGSGTEFTLTISSLQPEDFATYYCQHFWGTPWTFGQGTKVEIK
notes: human constant region
B6: CD81K13 HC 01-hVH_1_f / LC 5b-hVK_1_39-GA (antibody, V domains shown)
VH: EVQLVQSGAEVKKPGATVKISCKVSGYTFTDSYMHWVQQAPGKGLEWMGRIDTGNGNVKFDPKFQGRVTITADTSTDTAYMELSSLRSEDTAVYYCAPYGYGFHSWGQGTLVTVSS
VL: DIQMTQSPSSLSASVGDRVTITCRASENIYRTLAWYQQKPGKAPKLLIYGATTLADGVPSRFSGSGSGTDFTLTISSLQPEDFATYYCQHFWGTPWTFGQGTKVEIK
notes: human constant region
B7: CD81K13 HC 01-hVH_1_f / LC 5b-hVK_1_39 (antibody, V domains shown)
VH: EVQLVQSGAEVKKPGATVKISCKVSGYTFTDSYMHWVQQAPGKGLEWMGRIDTGNGNVKFDPKFQGRVTITADTSTDTAYMELSSLRSEDTAVYYCAPYGYGFHSWGQGTLVTVSS
VL: DIQMTQSPSSLSASVGDRVTITCRASENIYRTLAWYQQKPGKAPKLLIYGATTLADGVPSRFSGSGSGTDFTLTISSLQPEDFATYYCQHFWGTPWTFGQGTKVEIK
notes: human constant region
B8: CD81K13 HC 01-hVH_1_f / LC 04-hVK_1_9 (antibody, V domains shown)
VH: EVQLVQSGAEVKKPGATVKISCKVSGYTFTDSYMHWVQQAPGKGLEWMGRIDTGNGNVKFDPKFQGRVTITADTSTDTAYMELSSLRSEDTAVYYCAPYGYGFHSWGQGTLVTVSS
VL: DIQLTQSPSFLSASVGDRVTITCRASENIYRTLAWYQQKPGKAPKLLIYAATTLASGVPSRFSGSGSGTEFTLTISSLQPEDFGTYYCQHFWGTPWTFGQGTKVEIK
notes: human constant region
B9: CD81K13 HC 01-hVH_1_f / LC 03-hVK_1_9 (antibody, V domains shown)
VH: EVQLVQSGAEVKKPGATVKISCKVSGYTFTDSYMHWVQQAPGKGLEWMGRIDTGNGNVKFDPKFQGRVTITADTSTDTAYMELSSLRSEDTAVYYCAPYGYGFHSWGQGTLVTVSS
VL: DIQLTQSPSFLSASVGDRVTITCRASENIYRTLAWYQQKPGKAPKLLIYAATTLASGVPSRFSGSGSGTEFTLTISSLQPEDFATYYCQHFWGTPWTFGQGTKVEIK
notes: human constant region
B10: CD81K13 HC 01-hVH_1_f / LC 05-hVK_1_39 (antibody, V domains shown)
VH: EVQLVQSGAEVKKPGATVKISCKVSGYTFTDSYMHWVQQAPGKGLEWMGRIDTGNGNVKFDPKFQGRVTITADTSTDTAYMELSSLRSEDTAVYYCAPYGYGFHSWGQGTLVTVSS
VL: DIQMTQSPSSLSASVGDRVTITCRASENIYRTLAWYQQKPGKAPKLLIYAATTLASGVPSRFSGSGSGTDFTLTISSLQPEDFATYYCQHFWGTPWTFGQGTKVEIK
notes: human constant region
B11: CD81K13 HC CD81K13 / LC 5b-hVK_1_39-GA (antibody, V domains shown)
VH: EVRLHQSAAQLVQPGASVRLSCTTSGFNFKDSYLHWVKQRPAQGLEWIGRIDTGNGNVKFDPKFQDKATITTDIPSMTAYLHLSNLTSEDTAVYYCVPYGYGFHSWGDGTTLTVSS
VL: DIQMTQSPSSLSASVGDRVTITCRASENIYRTLAWYQQKPGKAPKLLIYGATTLADGVPSRFSGSGSGTDFTLTISSLQPEDFATYYCQHFWGTPWTFGQGTKVEIK
notes: human constant region
B12: CD81K13 HC CD81K13 / LC 06-hVK_1_39 (antibody, V domains shown)
VH: EVRLHQSAAQLVQPGASVRLSCTTSGFNFKDSYLHWVKQRPAQGLEWIGRIDTGNGNVKFDPKFQDKATITTDIPSMTAYLHLSNLTSEDTAVYYCVPYGYGFHSWGDGTTLTVSS
VL: DIQMTQSPSSLSASVGDRVTITCRASENIYRTLAWYQQKPGKAPKLLIYAATTLASGVPSRFSGSGSGTDFTLTISSLQPEDFGTYYCQHFWGTPWTFGQGTKVEIK
notes: human constant region
B13: CD81K13 HC CD81K13 / LC 5b-hVK_1_39 (antibody, V domains shown)
VH: EVRLHQSAAQLVQPGASVRLSCTTSGFNFKDSYLHWVKQRPAQGLEWIGRIDTGNGNVKFDPKFQDKATITTDIPSMTAYLHLSNLTSEDTAVYYCVPYGYGFHSWGDGTTLTVSS
VL: DIQMTQSPSSLSASVGDRVTITCRASENIYRTLAWYQQKPGKAPKLLIYGATTLADGVPSRFSGSGSGTDFTLTISSLQPEDFATYYCQHFWGTPWTFGQGTKVEIK
notes: human constant region
B14: CD81K13 HC CD81K13 / LC 04-hVK_1_9 (antibody, V domains shown)
VH: EVRLHQSAAQLVQPGASVRLSCTTSGFNFKDSYLHWVKQRPAQGLEWIGRIDTGNGNVKFDPKFQDKATITTDIPSMTAYLHLSNLTSEDTAVYYCVPYGYGFHSWGDGTTLTVSS
VL: DIQLTQSPSFLSASVGDRVTITCRASENIYRTLAWYQQKPGKAPKLLIYAATTLASGVPSRFSGSGSGTEFTLTISSLQPEDFGTYYCQHFWGTPWTFGQGTKVEIK
notes: human constant region
B15: CD81K13 HC CD81K13 / LC 07-hVK_1_27 (antibody, V domains shown)
VH: EVRLHQSAAQLVQPGASVRLSCTTSGFNFKDSYLHWVKQRPAQGLEWIGRIDTGNGNVKFDPKFQDKATITTDIPSMTAYLHLSNLTSEDTAVYYCVPYGYGFHSWGDGTTLTVSS
VL: DIQMTQSPSSLSASVGDRVTITCRASENIYRTLAWYQQKPGKVPKLLIYAATTLASGVPSRFSGSGSGTDFTLTISSLQPEDVGTYYCQKFWGTPWTFGQGTKVEIK
notes: human constant region

This assay addresses T1, CD81. Briefly: cell ELISA.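 Also: antibody binding to HuH7 cells expressing CD81 versus a CD81-negative HuH7 control line, bound antibody detected by secondary reagent, absorbance at 450 nm with 620 nm reference.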
Procedure: For the binding cell ELISA assay, HuH7-Rluc-H3 (positive cell line expressing CD81) and HuH7-Rluc-L1 (negative control cell line) were propagated in F-12 DMEM medium with 10% FCS at 37° C. and 5% CO₂. On day 1, the cells were trypsinized at approximately 90% confluence and resuspended at 4×10⁵ cells/mL. […] On day 2, the antibody samples to be tested were prepared in a separate polypropylene round bottom plate with a twofold desired concentration with a final volume of 120 μl. All of the assay samples were diluted in cell culture medium. […] After fixation, each well was washed 3 times with 200 μL PBS/0.05% Tween. The secondary incubation step for detection of bound anti-CD81 antibodies was performed for 2 h at room temperature on a reciprocal shaker. […] Each well was washed three times with 200 μL PBS/0.05% Tween to remove unbound antibodies. […] The absorbance was read using the ELISA Tecan reader at 450 nm with 620 nm reference wavelength.
With B1, the ELISA data was 0.272. Take B2: the ELISA data stood at 0.617.

For B3, the ELISA data stood at 0.527. Molecule B4 registered an ELISA data of 0.392. The value for B5 was 0.949; that for B6 was 0.848; that for B7 was 0.89. B8 yielded an ELISA data of 0.244. For the molecule B9, the ELISA data is 0.294. Turning to B10, the ELISA data amounted to 0.458. In turn, B11 returned an ELISA data of 0.751.

Turning to B12, the ELISA data is 0.811.

The molecule B13 came in with an ELISA data of 0.594.

Regarding B14, the ELISA data amounted to 0.851. B15 displayed an ELISA data of 0.199.

The values above are taken from patent US20200377590A1 (Hoffmann-La Roche, published 2020).
